From paper doi:10.1101/2023.07.07.548075 (bioRxiv, 2023) come the findings set out here.

The data set deals with the molecule itself. Put plainly: SEC. For orientation: In gel filtration, larger molecules generally elute earlier.

B1: MBP-Δexon3 NLRP3 + GSGAGG linker (human NLRP3 3-1036, Δ95-134 + linker (GSGAGG)) (natural protein)
chain: MASTRCKLARYLEDLEDVDLKKFKMHLEDYPPQKGCIPLPRGQTEKADHVDLATLMIDFNGEEKAWAMAVWIFAAINRRDLYEKAKRDEPKWGSGAGGDYRKKYRKYVRSRFQCIEDRNARLGESVSLNKRYTRLRLIKEHRSQQEREQELLAIGKTKTCESPVSPIKMELLFDPDDEHSEPVHTVVFQGAAGIGKTILARKMMLDWASGTLYQDRFDYLFYIHCREVSLVTQRSLGDLIMSCCPDPNPPIHKIVRKPSRILFLMDGFDELQGAFDEHIGPLCTDWQKAERGDILLSSLIRKKLLPEASLLITTRPVALEKLQHLLDHPRHVEILGFSEAKRKEYFFKYFSDEAQARAAFSLIQENEVLFTMCFIPLVCWIVCTGLKQQMESGKSLAQTSKTTTAVYVFFLSSLLQPRGGSQEHGLCAHLWGLCSLAADGIWNQKILFEESDLRNHGLQKADVSAFLRMNLFQKEVDCEKFYSFIHMTFQEFFAAMYYLLEEEKEGRTNVPGSRLKLPSRDVTVLLENYGKFEKGYLIFVVRFLFGLVNQERTSYLEKKLSCKISQQIRLELLKWIEVKAKAKKLQIQPSQLELFYCLYEMQEEDFVQRAMDYFPKIEINLSTRMDHMVSSFCIENCHRVESLSLGFLHNMPKEEEEEEKEGRHLDMVQCVLPSSSHAACSHGLVNSHLTSSFCRGLFSVLSTSQSLTELDLSDNSLGDPGMRVLCETLQHPGCNIRRLWLGRCGLSHECCFDISLVLSSNQKLVELDLSDNALGDFGIRLLCVGLKHLLCNLKKLWLVSCCLTSACCQDLASVLSTSHSLTRLYVGENALGDSGVAILCEKAKNPQCNLQKLGLVNSGLTSVCCSALSSVLSTNQNLTHLYLRGNTLGDKGIKLLCEGLLHPDCKLQVLELDNCNLTSHCCWDLSTLLTSSQSLRKLSLGNNDLGDLGVMMFCEVLKQQSCLLQNLGLSEMYFNYETKSALETLQEEKPELTVVFEPSW
For the protein B1, the binding result is “binds”.
